Results on 4 molecules are retold here after patent US20250282887A1 (Amgen, published 2025).

In assay [1] the target is T1, Human MAGEB2 (Melanoma-associated antigen B2) (human, UniProt O15479 1-319).
T1 construct: Intracellular antigen detected by IHC in FFPE material: CHO cells transfected with human MAGEB2 (mCherry vector with Myc/DDK tags, or ORF without tags)
T1 sequence: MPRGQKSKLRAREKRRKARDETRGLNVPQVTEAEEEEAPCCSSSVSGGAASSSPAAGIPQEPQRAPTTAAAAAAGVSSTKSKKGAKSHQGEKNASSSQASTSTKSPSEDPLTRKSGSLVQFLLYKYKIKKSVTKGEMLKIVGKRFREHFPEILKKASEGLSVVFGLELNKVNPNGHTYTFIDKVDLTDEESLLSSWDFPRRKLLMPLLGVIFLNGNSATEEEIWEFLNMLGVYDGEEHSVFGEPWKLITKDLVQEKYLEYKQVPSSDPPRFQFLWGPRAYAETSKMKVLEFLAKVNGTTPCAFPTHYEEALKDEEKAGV
Nature of the assay: IHC on FFPE KMM-1 cells (endogenous MAGEB2). As to the method:
(§1) FFPE samples were sectioned at 4 μm and mounted on positive charged glass slides. After mounting, paraffin sections were air-dried at room temperature. FFPE TMA samples were received as freshly sectioned and mounted on glass slides. The fully automated IHC assay was performed on a Discovery Ultra Stainer (Ventana Medical Systems, Tucson, AZ) using Ventana Anti-Rabbit HQ (cat #760-4815), Ventana Anti-HQ HRP (cat #760-4820), and Ventana Antibody Diluent with Casein (cat #760-219) (Ventana Medical Systems, Tucson, AZ). The slides were baked on the Discovery Ultra Stainer at 60° C. for 8 minutes, de-paraffinized with Ventana Discovery wash (cat #950-510) for 3 cycles (8 minutes each) at 69° C., and underwent cell conditioning (target retrieval) at 95° C. for 16 minutes (for cell arrays) or 32 minutes (tissues or TMAs) in CC1 buffer (cat #950-500). Following this, slides were incubated with Background Sniper (cat #BS966M, Biocare Medical, Pacheco, CA) in a Ventana Option Prep kit (cat #771-751) for 28 minutes, incubated with CM inhibitor (a part of the Ventana DAB kit cat #760-159) for 12 minutes, and incubated for 1 h at RT with MAGE-B2 antibody diluted with Ventana diluent with Casein in a Ventana Prep kit (cat #770-001) (working concentration at 0.1 μg/ml for cell pellet, or 1-5 ug/ml for tissues) or with a matched concentration of isotype control Rabbit IgG1 antibody. Following this, slides were incubated with the Ventana Anti-Rabbit HQ (cat #760-4815) for 28 minutes at RT, Ventana Anti-HQ HRP (cat #760-4820) for 28 minutes at RT, and signals detected with Ventana DAB chromogen kit (cat #760-159) for 5 minutes at RT. Slides were counterstained with Ventana Hematoxylin II (cat #5266726001) for 8 minutes and Ventana Bluing reagent (cat #526676900) for 4 minutes. Slides were coverslipped and digitized using an Aperio AT2 scanner (Leica Biosystems Inc, Buffalo Grove, IL).

Assay [2] concerns the target T1, Human MAGEB2 (Melanoma-associated …). Nature of the assay: IHC on FFPE SCaBER cells (endogenous MAGEB2). The protocol: as §1
The target is the same in assay [3]. The assay is described as follows: IHC on FFPE CFPAC-1 cells (endogenous MAGEB2). The protocol:
as §1

Assay [4] shares this target. The assay is described as follows: IHC on FFPE VMRC-LCD cells (endogenous MAGEB2). As to the method: as §1
The next assay has as its target T2, human MAGEA5 (human, UniProt P43359 1-124).
T2 construct: whole, on cells; FFPE cell pellets
T2 sequence (looked up): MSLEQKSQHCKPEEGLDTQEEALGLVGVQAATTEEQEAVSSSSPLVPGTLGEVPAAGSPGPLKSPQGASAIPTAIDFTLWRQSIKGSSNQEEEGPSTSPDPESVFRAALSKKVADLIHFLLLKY
Nature of the assay: IHC, FFPE CHO cells transfected with human MAGEA5.
Excerpt: Negative control cells included parental Chinese hamster ovary (CHO) cells, CHO cells stably transfected with mCherry Vector Control (minus Myc/DDK tags), CHO cells stably transfected with mCherry-human DCAF4L2 (plus Myc/DDK tags). The cross-reactivity control cells included CHO cells transfected with mCherry Vector Control (plus Myc/DDK tags) with one of the human MAGE-B or MAGE-A family members (MAGEA1, MAGEA2, MAGEA3, MAGEA4, MAGEA5, MAGEA6, MAGEA8, MAGEA9, MAGEA11, MAGEA12, MAGEB1, MAGEB3, MAGEB4, MAGEB5, MAGEB6, MAGEB10, MAGEB16, MAGEB17, MAGEB18). Positive control cell lines included CHO cells transfected with mCherry Vector (plus Myc/DDK tags) with human MAGE-B2 or CHO cells transfected with mCherry Vector (open reading frame (ORF); minus Myc/DDK tags) with human MAGEB2, and thirteen human cancer cell lines with known endogenous RNA expression level of MAGEB2 (U266B1, T98G, KMM-1, U20S, CFPAC-1, SCaBER, UACC-257, CFPAC-1, VMRC-LCD, NCI-H1703, UM-UC-3, NCI-H1395, NCIH82).
as §1, with “antibody.” for “antibody. Following this, slides were incubated with the Ventana Anti-Rabbit HQ (cat #760-4815) for 28 minutes at RT, Ventana Anti-HQ HRP (cat #760-4820) for 28 minutes at RT, and signals detected with Ventana DAB chromogen kit (cat #760-159) for 5 minutes at RT. Slides were counterstained with Ventana Hematoxylin II (cat #5266726001) for 8 minutes and Ventana Bluing reagent (cat #526676900) for 4 minutes. Slides were coverslipped and digitized using an Aperio AT2 scanner (Leica Biosystems Inc, Buffalo Grove, IL).”

A further assay deals with T3, human MAGEA6 (human, UniProt P43360 1-314).
T3 construct: whole, on cells; FFPE cell pellets
The assay is described as follows: IHC, FFPE CHO cells transfected with human MAGEA6. As to the method:
as §1

T3 sequence (P43360 whole entry): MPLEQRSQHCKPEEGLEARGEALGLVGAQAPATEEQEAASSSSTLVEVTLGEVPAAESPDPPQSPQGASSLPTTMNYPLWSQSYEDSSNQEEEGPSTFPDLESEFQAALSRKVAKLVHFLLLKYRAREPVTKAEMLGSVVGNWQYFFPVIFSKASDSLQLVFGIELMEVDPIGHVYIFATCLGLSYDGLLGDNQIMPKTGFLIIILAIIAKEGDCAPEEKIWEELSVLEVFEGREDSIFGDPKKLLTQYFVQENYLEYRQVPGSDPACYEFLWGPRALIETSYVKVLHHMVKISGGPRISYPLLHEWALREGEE

B1: 1C3 (antibody, V domains shown)
VH: QSLEESGGGLVQPEGSLTLTCTAFGVTLTNYYICWVRQAPGKGLEWVGCIDNANGRTYYASWAKGRFTISKTSSTTGTLQMTSLTAADTATYFCARSLATPLWGPGTLVTVSS
VL: DIVMTQTPSSVEAAVGGTVTIKCQASQNISSYLAWYQQKPGQPPKLLIYRASTLASGVPSRFKGSGSGTQFTLTISDLECADAATYYCQSYDDSRSSNFFYAFGGGTEVVVKG
notes: also called MAGE-B2 (IC3); anti-MAGEB2 antibody 1C3
Take B1: the “IHC % Frequency” value in assay [1] came to 70%; in assay [2], 70%; in assay [3] it was 0%; in assay [4] it was 0%. Moreover, the “IHC Intensity” value in assay [1] was 1; in assay [2], 2; in assay [4] it was 0. In addition, the binding result with human MAGEA5 and with human MAGEA6 was “no binding (tested: 0.1 µg/ml)” throughout.

B2: 4G17 (antibody, IgG1, V domains shown)
VH: QSLEESGGGLVQPEGSLTLTCTASGVTLSNYYICWVRQAPGKGLEWIGCIDNVNGRTYYASWAKGRFTISKTSSTTGTLQMTSLTAADTATYFCARSLATPLWGPGTLVTVSS
VL: DIVMTQTPASVEAAVGGTVTIKCQASQNIDSYLAWYQQKPGQPPKLLIYRASTLASGVPSRFKGSGSGTEFTLTISDLECADAATYYCQSYDDSRSSSFFYGFGGGTEVVVK
notes: Rabbit monoclonal IgG1; Tested as supernatant and as small batch purified antibody; also called MAGE-B2 (4G17); anti-MAGEB2 antibody 4G17
As for B2, the “IHC % Frequency” value in assay [1] came to 70%; in assay [2], 70%; in assay [3], 0%; in assay [4], 0%. Also, the “IHC Intensity” value in assay [1] worked out at 2; in assay [2], 2; in assay [4] it was 0. Also, the binding result in the assay with human MAGEA5 and in the assay with human MAGEA6 was “no binding (tested: 0.1 µg/ml)” throughout.

B3: 1J15 (antibody, IgG1, V domains shown)
VH: QSLEESGGGLVQPEGSLTLTCTAFGFTLNNYYICWVRQAPGKGLEWIACIDNANGRTYYASWAKGRFTISKTSSTTVTLQMTSLTAADTATYFCARSLSTPLWGPGTLVTVSS
VL: DIVMTQTPASVEAAVGGTVTIKCQASQSISSYLSWYQQKPGQPPKLLIYRASTLASGVPSRFRGSGSGTQFTLTISDLECADAATYYCQSYDDSSDNNFFYGFGGGTEVVVR
notes: Rabbit monoclonal IgG1; Tested as supernatant and as small batch purified antibody; also called MAGE-B2 (IJ15); anti-MAGEB2 antibody 1J15
On to B3, for which the “IHC % Frequency” value stood at 70% in assay [1], 50% in assay [2], 0% in assay [3] and 0% in assay [4]. Also, the “IHC Intensity” value in assay [2] amounted to 2; in assay [4] it was 0. The binding result in the assay with human MAGEA5 and with human MAGEA6 was “no binding (tested: 0.1 µg/ml)” in each case.

B4: 1I14 (antibody, V domains shown)
VH: QSVEESGGRLVTPGTPLTLTCTISGFSLSSYAMSWVRQAPGKGLEWIGSIGGGGSAVYASWAKGRFTISKTSTTVDLRITSPTTEDTAMYFCGRGFYSIDLWGPGTLVTVSS
VL: DVVMTQTPASVEATVGGTVTIKCQSSQSVYDNNALAWYQQNAGQRPRLLIYGASTLASGVPSRFSASGSGTEFTLTISDLECADAATYYCQCTYYVSSYQNDFGGGTEVVVKG
notes: also called MAGE-B2 (1i14)
With B4, the “IHC % Frequency” value in assay [1] was found to be 70%; in assay [2], 0%; in assay [3], 0%; in assay [4], 0%. Further, the “IHC Intensity” value was found to be 1 in assay [1], 0 in assay [2] and 0 in assay [4]. Moreover, the binding result in the assay with human MAGEA5 and with human MAGEA6 was “no binding (tested: 0.1 µg/ml)” throughout.
